The source of these data is US12065471B2, “B*44 restricted peptides for use in immunotherapy against cancers and related methods” (Immatics Biotechnologies GmbH, priority 2018, dated 2024).

In the assay the target is HLA-B*44:05 (Homo sapiens, UniProt P01889, A223V/A65T/A93T/A95T/D201E/D98Y/E176V/E187L/E204Q/E69K/G107R/H137Y/K202T/L105A/L119I/N104T/N87E/Q56L/Q94N/R106L/R155S/R180D/S101N/S121R/S35A/S48T/T118I/V36M/W191S/Y91S). The assay is described as follows: MHC binding assay (UV-ligand exchange, β2m ELISA, peptide exchange yield). The conditions noted are these: binding to HLA-B*44:05. The source says:
Candidate peptides for T cell-based therapies according to the present invention were further tested for their MHC binding capacity (affinity). The individual peptide-MHC complexes were produced by UV-ligand exchange, where a UV-sensitive peptide is cleaved upon UV-irradiation and exchanged with the peptide of interest as analyzed. Only peptide candidates that can effectively bind and stabilize the peptide-receptive MHC molecules prevent dissociation of the MHC complexes. To determine the yield of the exchange reaction, an ELISA was performed based on the detection of the light chain (β2m) of stabilized MHC complexes. The assay was performed as generally described in Rodenko et al. (Rodenko et al., 2006)
96 well MAXISorp plates (NUNC) were coated over night with 2 μg/ml streptavidin in PBS at room temperature, washed 4× and blocked for 1 h at 37° C. in 2% BSA containing blocking buffer. Refolded HLA-A*02:01/MLA-001 monomers served as standards, covering the range of 15-500 ng/ml. Peptide-MHC monomers of the UV-exchange reaction were diluted 100-fold in blocking buffer. Samples were incubated for 1h at 37° C., washed four times, incubated with 2 μg/ml HRP conjugated anti-β2m for 1h at 37° C., washed again and detected with TMB solution that is stopped with […]. Absorption was measured at 450 nm.
A general note: ELISA stands for enzyme-linked immunosorbent assay.
As to “124 (NENLDYAIL; listed as Homo sapiens) [compound 124]”, the “Peptide exchange (MHC class I binding score, peptide exchange yield)” value (from here on “Peptide exchange”) is reported as “++++ (>75% = ++++)”.

On to “418 (GEPRKLLTQDW; listed as Homo sapiens) [compound 418]”, for which the “Peptide exchange” value is “+++ (>50 = +++)”.

Take “121 (YENIPVDKV; listed as Homo sapiens) [compound 121]”: the “Peptide exchange” value is listed as “+++ (>50 = +++)”.

As to “322 (REESDWHYL; listed as Homo sapiens) [compound 322]”, the “Peptide exchange” value is given as “+++ (>50 = +++)”.

For the substance “269 (SEDLAVHL; listed as Homo sapiens) [compound 269]”, the “Peptide exchange” value is “++++ (>75% = ++++)”.

As for “248 (KESQLPTVMDF; listed as Homo sapiens) [compound 248]”, the “Peptide exchange” value is listed as “+++ (>50 = +++)”.

For “227 (ALTEDSIDDTF; listed as Homo sapiens) [compound 227]”, the “Peptide exchange” value is “+ (>10% = +)”.

As for “241 (QELLDIANYL; listed as Homo sapiens) [compound 241]”, the “Peptide exchange” value was “++++ (>75% = ++++)”.

Take “196 (TELEVKIRDW; listed as Homo sapiens) [compound 196]”: the “Peptide exchange” value was “++++ (>75% = ++++)”.

“331 (KELEATKQYL; listed as Homo sapiens) [compound 331]”: the “Peptide exchange” value is “+++ (>50 = +++)”.

Consider “203 (REILHAQTL; listed as Homo sapiens) [compound 203]”, for which the “Peptide exchange” value was “+++ (>50 = +++)”.

Regarding “107 (YQENPRAAW; listed as Homo sapiens) [compound 107]”, the “Peptide exchange” value was “++ (>20% = ++)”.

Regarding “81 (GEKATMQNL; listed as Homo sapiens) [compound 81]”, the “Peptide exchange” value was “++ (>20% = ++)”.

“171 (WEVVHTVF; listed as Homo sapiens) [compound 171]”: the “Peptide exchange” value is “++ (>20% = ++)”.

For the substance “255 (KQWEYNEKLAF; listed as Homo sapiens) [compound 255]”, the “Peptide exchange” value is reported as “+ (>10% = +)”.

Consider “450 (REIENGNSF; listed as Homo sapiens) [compound 450]”, for which the “Peptide exchange” value is listed as “+++ (>50 = +++)”.

For “86 (QTLKAMVQAW; listed as Homo sapiens) [compound 86]”, the “Peptide exchange” value is “+++ (>50 = +++)”.

For the substance “360 (DEMENLLTY; listed as Homo sapiens) [compound 360]”, the “Peptide exchange” value is “++++ (>75% = ++++)”.

Turning to “103 (AELFLTKSF; listed as Homo sapiens) [compound 103]”, the “Peptide exchange” value is given as “++++ (>75% = ++++)”.

With “371 (NEIGQELTGQEW; listed as Homo sapiens) [compound 371]”, the “Peptide exchange” value is on record as “++++ (>75% = ++++)”.

As for “326 (RELLDFSSW; listed as Homo sapiens) [compound 326]”, the “Peptide exchange” value was “++++ (>75% = ++++)”.

For the substance “275 (GEQPPEGQW; listed as Homo sapiens) [compound 275]”, the “Peptide exchange” value is reported as “+++ (>50 = +++)”.

Regarding “316 (RLWPEPENW; listed as Homo sapiens) [compound 316]”, the “Peptide exchange” value was “++ (>20% = ++)”.

On to “21 (SEAKEIKSQL; listed as Homo sapiens) [compound 21]”, for which the “Peptide exchange” value is “+++ (>50 = +++)”.

As for “27 (GETCVRITY; listed as Homo sapiens) [compound 27]”, the “Peptide exchange” value is reported as “+++ (>50 = +++)”.

With “164 (DEDGKIVGY; listed as Homo sapiens) [compound 164]”, the “Peptide exchange” value is “++ (>20% = ++)”.

On to “235 (SESLPRAPL; listed as Homo sapiens) [compound 235]”, for which the “Peptide exchange” value is given as “+++ (>50 = +++)”.

For the substance “110 (EVEVGEVKSW; listed as Homo sapiens) [compound 110]”, the “Peptide exchange” value is given as “+ (>10% = +)”.

On to “385 (LEHPFLVNLW; listed as Homo sapiens) [compound 385]”, for which the “Peptide exchange” value was “++++ (>75% = ++++)”.

“365 (NESGKAFNY; listed as Homo sapiens) [compound 365]”: the “Peptide exchange” value is on record as “++++ (>75% = ++++)”.

Turning to “149 (AETEPERHLG; listed as Homo sapiens) [compound 149]”, the “Peptide exchange” value was “++ (>20% = ++)”.

For the substance “120 (VTEGAVEVKY; listed as Homo sapiens) [compound 120]”, the “Peptide exchange” value is “+ (>10% = +)”.

As to “199 (AELPENLKALF; listed as Homo sapiens) [compound 199]”, the “Peptide exchange” value is on record as “+++ (>50 = +++)”.

On to “393 (SETILAVGL; listed as Homo sapiens) [compound 393]”, for which the “Peptide exchange” value was “+++ (>50 = +++)”.

For the substance “125 (LEVLHQGQW; listed as Homo sapiens) [compound 125]”, the “Peptide exchange” value is on record as “+++ (>50 = +++)”.

For “213 (DEDLFHKL; listed as Homo sapiens) [compound 213]”, the “Peptide exchange” value is recorded as “++ (>20% = ++)”.

For the substance “90 (EESLLSSW; listed as Homo sapiens) [compound 90]”, the “Peptide exchange” value is “+++ (>50 = +++)”.

In the case of “268 (EDLAVHLY; listed as Homo sapiens) [compound 268]”, the “Peptide exchange” value is “+ (>10% = +)”.

Consider “165 (EEIEAHIAL; listed as Homo sapiens) [compound 165]”, for which the “Peptide exchange” value was “+++ (>50 = +++)”.

As for “14 (EMPGGPVW; listed as Homo sapiens) [compound 14]”, the “Peptide exchange” value is recorded as “+++ (>50 = +++)”.

With “294 (EEWEWIQKL; listed as Homo sapiens) [compound 294]”, the “Peptide exchange” value is “++++ (>75% = ++++)”.

Regarding “369 (KELEERMLHW; listed as Homo sapiens) [compound 369]”, the “Peptide exchange” value was “++++ (>75% = ++++)”.

As for “174 (DENDAGNLITF; listed as Homo sapiens) [compound 174]”, the “Peptide exchange” value is reported as “+++ (>50 = +++)”.

Regarding “390 (GEYNKHAQLW; listed as Homo sapiens) [compound 390]”, the “Peptide exchange” value was “++++ (>75% = ++++)”.

As to “431 (QELLDFTNW; listed as Homo sapiens) [compound 431]”, the “Peptide exchange” value is “++++ (>75% = ++++)”.

Consider “259 (IEVSSPITLQAL; listed as Homo sapiens) [compound 259]”, for which the “Peptide exchange” value is given as “++ (>20% = ++)”.

On to “186 (EEIFAHLGL; listed as Homo sapiens) [compound 186]”, for which the “Peptide exchange” value was “+++ (>50 = +++)”.

As to “222 (SEDTIHTHL; listed as Homo sapiens) [compound 222]”, the “Peptide exchange” value was “+++ (>50 = +++)”.

For “314 (EMREERKF; listed as Homo sapiens) [compound 314]”, the “Peptide exchange” value is given as “++ (>20% = ++)”.

As for “280 (AAEPLVGQRW; listed as Homo sapiens) [compound 280]”, the “Peptide exchange” value is “++ (>20% = ++)”.

For “339 (NEVKEIKGY; listed as Homo sapiens) [compound 339]”, the “Peptide exchange” value was “+++ (>50 = +++)”.

With “287 (REVSVVDIL; listed as Homo sapiens) [compound 287]”, the “Peptide exchange” value is listed as “++++ (>75% = ++++)”.

Consider “438 (AELDSKILAL; listed as Homo sapiens) [compound 438]”, for which the “Peptide exchange” value was “+++ (>50 = +++)”.

For the substance “300 (KQTEATMTF; listed as Homo sapiens) [compound 300]”, the “Peptide exchange” value was “++ (>20% = ++)”.

Turning to “436 (AEADLSYTWDF; listed as Homo sapiens) [compound 436]”, the “Peptide exchange” value is “+++ (>50 = +++)”.

For “154 (NEAGEMIKHY; listed as Homo sapiens) [compound 154]”, the “Peptide exchange” value is “++ (>20% = ++)”.

Regarding “102 (TELADLDAAW; listed as Homo sapiens) [compound 102]”, the “Peptide exchange” value is reported as “++++ (>75% = ++++)”.
